From patent US20250215412A1 (NOVOZYMES A S, published 2025) come the findings set out here.

In this assay the target is T1, Chryseobacterium sp-62563 deamidase polypeptide (second polypeptide, deamidase domain), wildtype (Chryseobacterium sp-62563).
T1 sequence: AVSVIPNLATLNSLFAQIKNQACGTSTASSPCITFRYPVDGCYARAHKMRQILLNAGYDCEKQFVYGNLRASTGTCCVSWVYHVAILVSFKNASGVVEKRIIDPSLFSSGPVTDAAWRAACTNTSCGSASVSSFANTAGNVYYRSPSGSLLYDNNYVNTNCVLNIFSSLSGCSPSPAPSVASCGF
Kind of assay: cell-based or functional assay.

Changes are numbered by the printed parent chain. Names may count otherwise.

B1: Chryseobacterium sp-62563 propeptide E67S (protein)
chain: NQDPNLVAKESNETAMKDFGKTVPVGIEKEDGKFKISFMVTAQPYEIKDSKENAAYISMIKTAVENSTPIHVFLKANTNEIAKVDKATDDDIRYFKSVFTKEVKEENRK
As to B1, the Relative activity of maturated deamidase (% initial rate) stood at 42.

B2: Chryseobacterium sp-62563 propeptide K21G (protein)
chain: B1 chain with K21G, S67E
The molecule B2 yielded a Leakage activity of 0% and a Relative activity of maturated deamidase (% initial rate) of 53.

B3: Chryseobacterium sp-62563 propeptide V25C (protein)
chain: B1 chain with V25C, S67E
In turn, B3 had a Relative activity of maturated deamidase (% initial rate) of 96.

B4: Chryseobacterium sp-62563 propeptide Y45L (protein)
chain: B1 chain with Y45L, S67E
The molecule B4 registered a Relative activity of maturated deamidase (% initial rate) of 65.

B5: Chryseobacterium sp-62563 propeptide E67R (protein)
chain: B1 chain with S67R
As for B5, the Relative activity of maturated deamidase (% initial rate) was 95.

B6: Chryseobacterium sp-62563 propeptide V23Y (protein)
chain: B1 chain with V23Y, S67E
For the molecule B6, the Leakage activity stood at 0% and the Relative activity of maturated deamidase (% initial rate) was 56.

B7: Chryseobacterium sp-62563 propeptide M39S (protein)
chain: B1 chain with M39S, S67E
B7: the Relative activity of maturated deamidase (% initial rate) was above 100.

B8: Chryseobacterium sp-62563 propeptide E67L (protein)
chain: B1 chain with S67L
As for B8, the Relative activity of maturated deamidase (% initial rate) was found to be 55.

B9: Chryseobacterium sp-62563 propeptide M39F (protein)
chain: B1 chain with M39F, S67E
On to B9, for which the Relative activity of maturated deamidase (% initial rate) was 45.

B10: Chryseobacterium sp-62563 propeptide E67C (protein)
chain: B1 chain with S67C
B10: the Relative activity of maturated deamidase (% initial rate) was 46.

B11: Chryseobacterium sp-62563 propeptide E65P (protein)
chain: B1 chain with E65P, S67E
With B11, the Relative activity of maturated deamidase (% initial rate) is 30.

B12: Chryseobacterium sp-62563 propeptide K101M (protein)
chain: B1 chain with S67E, K101M
Take B12: the Relative activity of maturated deamidase (% initial rate) was 29.

B13: Chryseobacterium sp-62563 propeptide E67K (protein)
chain: B1 chain with S67K
As for B13, the Relative activity of maturated deamidase (% initial rate) was above 100.

B14: Chryseobacterium sp-62563 propeptide E67I (protein)
chain: B1 chain with S67I
B14 gave a Relative activity of maturated deamidase (% initial rate) of 31.

B15: Chryseobacterium sp-62563 propeptide E30W (protein)
chain: B1 chain with E30W, S67E
Turning to B15, the Relative activity of maturated deamidase (% initial rate) stood at 27.

B16: Chryseobacterium sp-62563 propeptide S58P (protein)
chain: B1 chain with S58P, S67E
B16 had a Relative activity of maturated deamidase (% initial rate) of 42.

B17: Chryseobacterium sp-62563 propeptide K101P (protein)
chain: B1 chain with S67E, K101P
On to B17, for which the Relative activity of maturated deamidase (% initial rate) came to 36.

B18: Chryseobacterium sp-62563 propeptide M39G (protein)
chain: B1 chain with M39G, S67E
For B18, the Relative activity of maturated deamidase (% initial rate) was above 100.

B19: Chryseobacterium sp-62563 propeptide F19L (protein)
chain: B1 chain with F19L, S67E
Molecule B19 showed a Relative activity of maturated deamidase (% initial rate) of 33.

B20: Chryseobacterium sp-62563 propeptide M39H (protein)
chain: B1 chain with M39H, S67E
Turning to B20, the Relative activity of maturated deamidase (% initial rate) is above 100.

B21: Chryseobacterium sp-62563 propeptide K101N (protein)
chain: B1 chain with S67E, K101N
On to B21, for which the Relative activity of maturated deamidase (% initial rate) came to 29.

B22: Chryseobacterium sp-62563 propeptide N1C (protein)
chain: B1 chain with N1C, S67E
For B22, the Leakage activity stood at 0% and the Relative activity of maturated deamidase (% initial rate) was determined as 27.

B23: Chryseobacterium sp-62563 propeptide K101W (protein)
chain: B1 chain with S67E, K101W
Molecule B23 displayed a Relative activity of maturated deamidase (% initial rate) of 54.

B24: Chryseobacterium sp-62563 propeptide F19P (protein)
chain: B1 chain with F19P, S67E
The molecule B24 yielded a Leakage activity of 3% and a Relative activity of maturated deamidase (% initial rate) of 71.

B25: Chryseobacterium sp-62563 propeptide M16G (protein)
chain: B1 chain with M16G, S67E
For the molecule B25, the Leakage activity amounted to 0% and the Relative activity of maturated deamidase (% initial rate) came to 27.

B26: Chryseobacterium sp-62563 propeptide D18G (protein)
chain: B1 chain with D18G, S67E
For the molecule B26, the Leakage activity is 0% and the Relative activity of maturated deamidase (% initial rate) was found to be 62.

B27: Chryseobacterium sp-62563 propeptide K101S (protein)
chain: B1 chain with S67E, K101S
As to B27, the Relative activity of maturated deamidase (% initial rate) was 29.

B28: Chryseobacterium sp-62563 propeptide D18K (protein)
chain: B1 chain with D18K, S67E
B28 registered a Leakage activity of 5% and a Relative activity of maturated deamidase (% initial rate) of 37.

B29: Chryseobacterium sp-62563 propeptide E67G (protein)
chain: B1 chain with S67G
B29 came in with a Relative activity of maturated deamidase (% initial rate) of 54.

B30: Chryseobacterium sp-62563 propeptide M39E (protein)
chain: B1 chain with M39E, S67E
Consider B30, for which the Relative activity of maturated deamidase (% initial rate) was 95.

B31: Chryseobacterium sp-62563 propeptide D18M (protein)
chain: B1 chain with D18M, S67E
With B31, the Leakage activity is 0% and the Relative activity of maturated deamidase (% initial rate) was 34.

B32: Chryseobacterium sp-62563 propeptide F38G (protein)
chain: B1 chain with F38G, S67E
In turn, B32 showed a Relative activity of maturated deamidase (% initial rate) above 100.

B33: Chryseobacterium sp-62563 propeptide F38D (protein)
chain: B1 chain with F38D, S67E
Turning to B33, the Relative activity of maturated deamidase (% initial rate) was above 100.

B34: Chryseobacterium sp-62563 propeptide E67M (protein)
chain: B1 chain with S67M
The molecule B34 yielded a Relative activity of maturated deamidase (% initial rate) of 37.

B35: Chryseobacterium sp-62563 propeptide M39Q (protein)
chain: B1 chain with M39Q, S67E
The molecule B35 displayed a Relative activity of maturated deamidase (% initial rate) above 100.

B36: Chryseobacterium sp-62563 propeptide M39Y (protein)
chain: B1 chain with M39Y, S67E
B36 registered a Relative activity of maturated deamidase (% initial rate) above 100.

B37: Chryseobacterium sp-62563 propeptide D18R (protein)
chain: B1 chain with D18R, S67E
The molecule B37 gave a Leakage activity of 0% and a Relative activity of maturated deamidase (% initial rate) of 51.

B38: Chryseobacterium sp-62563 propeptide M39N (protein)
chain: B1 chain with M39N, S67E
With B38, the Relative activity of maturated deamidase (% initial rate) is 39.

B39: Chryseobacterium sp-62563 propeptide E67H (protein)
chain: B1 chain with S67H
For B39, the Relative activity of maturated deamidase (% initial rate) was 78.

B40: Chryseobacterium sp-62563 propeptide E67D (protein)
chain: B1 chain with S67D
In the case of B40, the Relative activity of maturated deamidase (% initial rate) stood at 69.

B41: Chryseobacterium sp-62563 propeptide M39W (protein)
chain: B1 chain with M39W, S67E
Molecule B41 came in with a Relative activity of maturated deamidase (% initial rate) of 44.

B42: Chryseobacterium sp-62563 propeptide Y56P (protein)
chain: B1 chain with Y56P, S67E
In turn, B42 returned a Relative activity of maturated deamidase (% initial rate) of 32.

B43: Chryseobacterium sp-62563 propeptide K101Y (protein)
chain: B1 chain with S67E, K101Y
On to B43, for which the Relative activity of maturated deamidase (% initial rate) came to 46.

B44: Chryseobacterium sp-62563 propeptide K101L (protein)
chain: B1 chain with S67E, K101L
On to B44, for which the Relative activity of maturated deamidase (% initial rate) was determined as 41.

B45: Chryseobacterium sp-62563 propeptide D18P (protein)
chain: B1 chain with D18P, S67E
For B45, the Leakage activity came to 0% and the Relative activity of maturated deamidase (% initial rate) came out at 66.

B46: Chryseobacterium sp-62563 propeptide E67F (protein)
chain: B1 chain with S67F
Consider B46, for which the Relative activity of maturated deamidase (% initial rate) came out at 46.

B47: Chryseobacterium sp-62563 propeptide E67A (protein)
chain: B1 chain with S67A
Consider B47, for which the Relative activity of maturated deamidase (% initial rate) was determined as 46.

B48: Chryseobacterium sp-62563 propeptide K109G (protein)
chain: B1 chain with S67E, K109G
Take B48: the Leakage activity turned out to be 0% and the Relative activity of maturated deamidase (% initial rate) turned out to be 29.
